Molecular target: SH3 domain of Src (residues 83-141), wild type, with C-terminal FLAG-tag (chicken, UniProt P00523 83-141)
Assay: bimane fluorescence; as a10, for the pair of SH3 (250 nM) and βarr1 V70C-mBr (20 nM), both purified; read-out is the loss of the V2R-induced rise of bimane fluorescence
Conditions: both partners purified

B1: βarr1-MC-393 V70C labeled with monobromobimane (natural protein, rat, UniProt P29066 1-393, looked up)
chain: MGDKGTRVFKKASPNGKLTVYLGKRDFVDHIDLVDPVDGVVLVDPEYLKERRVYVTLTAAFRYGREDLDCLGLTFRKDLFVANVQSFPPAPEDKKPLTRLQERLIKKLGEHAYPFTFEIPPNLPSSVTLQPGPEDTGKAIGVDYEVKAFVAENLEEKIHKRNSVRLVIRKVQYAPERPGPQPTAETTRQFLMSDKPLHLEASLDKEIYYHGEPISVNVHVTNNTNKTVKKIKISVRQYADIVLFNTAQYKVPVAMEEADDTVAPSSTFSKVYTLTPFLANNREKRGLALDGKLKHEDTNLASSTLLREGANREILGIIVSYKVKVKLVVSRGGLLGDLASSDVAVELPFTLMHPKPKEEPPHREVPESETPVDTNLIELDTNDDDIVFEDFAR
modifications: bimane (mBr) on C70 of the finger loop
notes: beta-arrestin 1, rat, minimal cysteine and truncated variant (MC-393) with V70C; also called βarr1 V70C-mBr; βarr1 finger loop bimane; source: E. coli BL21 derivative, purified; labeled with monobromobimane, free label removed by SEC
binding result: binds
